Paper PMC9780815

Molecular target: GFP-BMB1 (Hibiscus green spot virus)
Test: FRET or BRET

In the case of BMB2-mRFP (natural protein), the FRET efficiency is reported as 36% and the reduction of the GFP excited-state lifetime (FLIM) against the controls is reported as 0.9 ns.
